In patent US20240192215A1 (E AND S HEALTHCARE, published 2024):

Key:
Peptide_004 = molecular target: T1, Peptide_004 (human); test: peptide microarray, 0.0016 ug/mL
T1 construct: 15-mer on microarray; not native form, recombinant insert region
T1 peptide: AADVHSQHHHHHHHH
Method: (§1) 5, 1, 0.2, 0.04, 0.008 and 0.0016 μg/mL serial dilutions were incubated on a single multi-well microarray slide at 30° C. for 1 hour. The slide includes 21 individual mini-arrays (one mini-array per sample dilution).
(§2) DyLight 650 was used as a label. False-positive binding to a peptide was evaluated by performing one additional control incubation in which only a secondary antibody was applied on the same microarray slide. Before performing each step, the microarrays were washed with a washing buffer.

Peptide_005 = molecular target: T2, Peptide_005 (human); test: peptide microarray, 0.0016 ug/mL
T2 construct: 15-mer on microarray; not native form, recombinant insert region
T2 peptide: ADVHSQHHHHHHHHV
Method: as §1, §2

Peptide_093 [1] = molecular target: T3, Peptide_093 (human); test: peptide microarray, 0.04 ug/mL
T3 construct: 15-mer of hTrx1 on microarray
T3 peptide: TFQFFKKGQKVGEFS
Method: as §1, §2

Peptide_094 [2] = molecular target: T4, Peptide_094 (human); test: peptide microarray, 0.04 ug/mL
T4 construct: 15-mer of hTrx1 on microarray
T4 peptide: FQFFKKGQKVGEFSG
Method: as §1, §2

Peptide_012 = molecular target: T5, Peptide_012 (human); test: peptide microarray, 0.0016 ug/mL
T5 construct: 15-mer on microarray; not native form, includes recombinant insert region
T5 peptide: HHHHHHHVKQIESKT
Method: as §1, §2

Peptide_013 = molecular target: T6, Peptide_013 (human); test: peptide microarray, 0.0016 ug/mL
T6 construct: 15-mer on microarray; not native form, includes recombinant insert region
T6 peptide: HHHHHHVKQIESKTA
Method: as §1, §2

Peptide_014 = molecular target: T7, Peptide_014 (human); test: peptide microarray, 0.0016 ug/mL
T7 construct: 15-mer on microarray; not native form, includes recombinant insert region
T7 peptide: HHHHHVKQIESKTAF
Method: as §1, §2

Peptide_015 = molecular target: T8, Peptide_015 (human); test: peptide microarray, 0.0016 ug/mL
T8 construct: 15-mer on microarray; not native form, includes recombinant insert region
T8 peptide: HHHHVKQIESKTAFQ
Method: as §1, §2

Peptide_018 = molecular target: T9, Peptide_018 (human); test: peptide microarray, 0.0016 ug/mL
T9 construct: 15-mer on microarray; not native form, includes recombinant insert region; also called HVKQIESKTAFQEAL
T9 peptide: HVKQIESKTAFQEAL
Method: as §1, §2

Peptide_019 = molecular target: T10, Peptide_019 (human); test: peptide microarray, 0.0016 ug/mL
T10 construct: 15-mer of hTrx1 on microarray
T10 peptide: VKQIESKTAFQEALD
Method: as §1, §2

Peptide_020 = molecular target: T11, Peptide_020 (human); test: peptide microarray, 0.0016 ug/mL
T11 construct: 15-mer of hTrx1 on microarray
T11 peptide: KQIESKTAFQEALDA
Method: as §1, §2

Peptide_021 = molecular target: T12, Peptide_021 (human); test: peptide microarray, 0.0016 ug/mL
T12 construct: 15-mer of hTrx1 on microarray
T12 peptide: QIESKTAFQEALDAA
Method: as §1, §2

Peptide_022 = molecular target: T13, Peptide_022 (human); test: peptide microarray, 0.0016 ug/mL
T13 construct: 15-mer of hTrx1 on microarray
T13 peptide: IESKTAFQEALDAAG
Method: as §1, §2

Peptide_023 = molecular target: T14, Peptide_023 (human); test: peptide microarray, 0.0016 ug/mL
T14 construct: 15-mer of hTrx1 on microarray
T14 peptide: ESKTAFQEALDAAGD
Method: as §1, §2

Peptide_024 = molecular target: T15, Peptide_024 (human); test: peptide microarray, 0.0016 ug/mL
T15 construct: 15-mer of hTrx1 on microarray
T15 peptide: SKTAFQEALDAAGDK
Method: as §1, §2

Peptide_025 = molecular target: T16, Peptide_025 (human); test: peptide microarray, 0.0016 ug/mL
T16 construct: 15-mer of hTrx1 on microarray
T16 peptide: KTAFQEALDAAGDKL
Method: as §1, §2

Peptide_045 = molecular target: T17, Peptide_045 (human); test: peptide microarray, 0.0016 ug/mL
T17 construct: 15-mer of hTrx1 on microarray
T17 peptide: SATWCGPCKMIKPFF
Method: as §1, §2

Peptide_051 = molecular target: T18, Peptide_051 (human); test: peptide microarray, 0.0016 ug/mL
T18 construct: 15-mer of hTrx1 on microarray
T18 peptide: PCKMIKPFFHSLSEK
Method: as §1, §2

Peptide_084 = molecular target: T19, Peptide_084 (human); test: peptide microarray, 0.0016 ug/mL
T19 construct: 15-mer of hTrx1 on microarray
T19 peptide: SECEVKCMPTFQFFK
Method: as §1, §2

Peptide_085 = molecular target: T20, Peptide_085 (human); test: peptide microarray, 0.0016 ug/mL
T20 construct: 15-mer of hTrx1 on microarray
T20 peptide: ECEVKCMPTFQFFKK
Method: as §1, §2

Peptide_086 = molecular target: T21, Peptide_086 (human); test: peptide microarray, 0.0016 ug/mL
T21 construct: 15-mer of hTrx1 on microarray
T21 peptide: CEVKCMPTFQFFKKG
Method: as §1, §2

Peptide_092 = molecular target: T22, Peptide_092 (human); test: peptide microarray, 0.0016 ug/mL
T22 construct: 15-mer of hTrx1 on microarray
T22 peptide: PTFQFFKKGQKVGEF
Method: as §1, §2

Peptide_093 [3] = molecular target: T3, Peptide_093; test: peptide microarray, 0.0016 ug/mL
Method: as §1, §2

Peptide_094 [4] = molecular target: T4, Peptide_094; test: peptide microarray, 0.0016 ug/mL
Method: as §1, §2

Peptide_095 = molecular target: T23, Peptide_095 (human); test: peptide microarray, 0.0016 ug/mL
T23 construct: 15-mer of hTrx1 on microarray
T23 peptide: QFFKKGQKVGEFSGA
Method: as §1, §2

B1: monoclonal antibody B266-1 (antibody, human IgG1)
light: QIVLTQSPAIMSASPGEKVTMTCSASSRISYMYWYQQKPGTSPKRWIYDTSKLASGVPARFSGSGSGTSYSLTISTMEAEDAATYYCHQRSSYPTFGAGTKLELKSVAAPSVFIFPPSDEQLKSGTASVVCLLNNFYPREAKVQWKVDNALQSGNSQESVTEQDSKDSTYSLSSTLTLSKADYEKHKVYACEVTHQGLSSPVTKSFNRGEC
heavy: not shown
notes: B266 with the Fc part changed to human IgG1; also called B266-1 (Trx1-hIgG1); B266-1 (hTrx1-hIgG1)
- signal (blank-control = 1) (Peptide_004): 0.99
- signal (blank-control = 1) (Peptide_005): 1.6

B2: monoclonal antibody B264 (antibody, mouse IgG1, kappa, V domains shown)
VH: QVQLQQSGAELARPGASVKMSCKASGYTFTSYTMHWVKQRPGQGLEWIGYINPTSDYTNYNQKFKDKATLTADKSSSTAYMQLSSLTSEDSAVYFCASEGGFLYYFDYWGQGTTLTVSS
VL: DVLMTQTPLSLPVSLGDQASISCRSSQSIVHSNGNTYLEWYLQKPGQSPKLLIYKVSNRFSGVPDRFSGSGSGTDFTLKISRVEAEDLGVYYCFQGSHVPYTFGGGTKLEIKR
notes: also called AB264; B264 (Trx1-mIgG1)
- signal (blank-control = 1) (Peptide_093 [1]): 2.46
- signal (blank-control = 1) (Peptide_094 [2]): 1.49
- signal (blank-control = 1) (Peptide_012): 0.81
- signal (blank-control = 1) (Peptide_013): 0.75
- signal (blank-control = 1) (Peptide_014): 0.69
- signal (blank-control = 1) (Peptide_015): 0.58
- signal (blank-control = 1) (Peptide_018): 0.68
- signal (blank-control = 1) (Peptide_019): 0.85
- signal (blank-control = 1) (Peptide_020): 0.71
- signal (blank-control = 1) (Peptide_021): 0.73
- signal (blank-control = 1) (Peptide_022): 0.72
- signal (blank-control = 1) (Peptide_023): 0.78
- signal (blank-control = 1) (Peptide_024): 0.72
- signal (blank-control = 1) (Peptide_025): 0.88
- signal (blank-control = 1) (Peptide_045): 4.08
- signal (blank-control = 1) (Peptide_051): 0.58
- signal (blank-control = 1) (Peptide_084): 0.97
- signal (blank-control = 1) (Peptide_085): 0.65
- signal (blank-control = 1) (Peptide_086): 0.82
- signal (blank-control = 1) (Peptide_092): 1.86
- signal (blank-control = 1) (Peptide_093 [3]): 1.12
- signal (blank-control = 1) (Peptide_094 [4]): 0.62
- signal (blank-control = 1) (Peptide_095): 1.07
